T1: FcγRIIb (human, UniProt P31994 43-217)
T1 construct: extracellular domain; also called 2b; FcgRIIb
T1 sequence (looked up): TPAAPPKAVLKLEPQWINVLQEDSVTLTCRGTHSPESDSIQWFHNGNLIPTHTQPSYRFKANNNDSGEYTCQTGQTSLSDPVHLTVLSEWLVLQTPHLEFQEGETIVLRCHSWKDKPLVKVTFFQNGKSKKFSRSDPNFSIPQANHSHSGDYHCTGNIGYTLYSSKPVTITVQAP


target: T1, FcγRIIb; experiment: SPR (Biacore), binding relative to GpH7-B3/GpL16-k0 = 100
Method: Analysis of interaction between objective antibody and the FcγR was carried out using Biacore T100 (GE Healthcare). HBS-EP+ (GE Healthcare) was used as the running buffer, and the measurement temperature was set to 25° C. Chips produced by immobilizing the antigen peptide by the amine coupling method to a Series S Sencor Chip CM5 (GE Healthcare), or alternatively, chips produced by allowing preliminarily biotinylated antigen peptides to interact with and immobilize onto a Series S Sensor Chip SA (certified) (GE Healthcare) were used. Antibodies of interest were captured onto an antigen peptide-immobilized chip, and allowed to interact to each FcγR diluted with running buffer. To regenerate and repeatedly use the chip, the antibodies captured on the chip were washed off by reacting 10 mM glycine-HCl, pH 1.5.
The FcγR-binding activity of each antibody was assessed primarily using as an indicator the FcγR-binding activity and dissociation constant for FcγR.

| Binder | Ho/Con_2b |
| --- | --- |
| GpH7-B3 variant I332_14T/GpL16-k0 (antibody, human IgG1, kappa, also called Ho Ab I332_14T) heavy: not shown light: DIVMTQSPLSLPVTPGEPASISCQASESLVHSNRNTYLHWYLQKPGQSPQLLIYKVSNRFSGVPDRFSGSGSGTDFTLKISRVEAEDVGVYYCSQNTHVPPTFGQGTKVEIERTVAAPSVFIFPPSDEQLKSGTASVVCLLNNFYPREAKVQWKVDNALQSGNSQESVTEQDSKDSTYSLSSTLTLSKADYEKHKVYACEVTHQGLSSPVTKSFNRGEC | 106 % of control |
| GpH7-B3 variant G237_13S/GpL16-k0 (antibody, human IgG1, kappa, also called Ho Ab G237_13S) heavy: not shown light: DIVMTQSPLSLPVTPGEPASISCQASESLVHSNRNTYLHWYLQKPGQSPQLLIYKVSNRFSGVPDRFSGSGSGTDFTLKISRVEAEDVGVYYCSQNTHVPPTFGQGTKVEIERTVAAPSVFIFPPSDEQLKSGTASVVCLLNNFYPREAKVQWKVDNALQSGNSQESVTEQDSKDSTYSLSSTLTLSKADYEKHKVYACEVTHQGLSSPVTKSFNRGEC | 25.7 % of control |
| GpH7-B3 variant I336_06M/GpL16-k0 (antibody, human IgG1, kappa, also called Ho Ab I336_06M) heavy: not shown light: DIVMTQSPLSLPVTPGEPASISCQASESLVHSNRNTYLHWYLQKPGQSPQLLIYKVSNRFSGVPDRFSGSGSGTDFTLKISRVEAEDVGVYYCSQNTHVPPTFGQGTKVEIERTVAAPSVFIFPPSDEQLKSGTASVVCLLNNFYPREAKVQWKVDNALQSGNSQESVTEQDSKDSTYSLSSTLTLSKADYEKHKVYACEVTHQGLSSPVTKSFNRGEC | 90.1 % of control |
| GpH7-B3 variant H268_03V/GpL16-k0 (antibody, human IgG1, kappa, also called Ho Ab H268_03V) heavy: not shown light: DIVMTQSPLSLPVTPGEPASISCQASESLVHSNRNTYLHWYLQKPGQSPQLLIYKVSNRFSGVPDRFSGSGSGTDFTLKISRVEAEDVGVYYCSQNTHVPPTFGQGTKVEIERTVAAPSVFIFPPSDEQLKSGTASVVCLLNNFYPREAKVQWKVDNALQSGNSQESVTEQDSKDSTYSLSSTLTLSKADYEKHKVYACEVTHQGLSSPVTKSFNRGEC | 109 % of control |
| GpH7-B3 variant H268_15Y/GpL16-k0 (antibody, human IgG1, kappa, also called Ho Ab H268_15Y) heavy: not shown light: DIVMTQSPLSLPVTPGEPASISCQASESLVHSNRNTYLHWYLQKPGQSPQLLIYKVSNRFSGVPDRFSGSGSGTDFTLKISRVEAEDVGVYYCSQNTHVPPTFGQGTKVEIERTVAAPSVFIFPPSDEQLKSGTASVVCLLNNFYPREAKVQWKVDNALQSGNSQESVTEQDSKDSTYSLSSTLTLSKADYEKHKVYACEVTHQGLSSPVTKSFNRGEC | 104 % of control |
| GpH7-B3 variant G237_15Y/GpL16-k0 (antibody, human IgG1, kappa, also called Ho Ab G237_15Y) heavy: not shown light: DIVMTQSPLSLPVTPGEPASISCQASESLVHSNRNTYLHWYLQKPGQSPQLLIYKVSNRFSGVPDRFSGSGSGTDFTLKISRVEAEDVGVYYCSQNTHVPPTFGQGTKVEIERTVAAPSVFIFPPSDEQLKSGTASVVCLLNNFYPREAKVQWKVDNALQSGNSQESVTEQDSKDSTYSLSSTLTLSKADYEKHKVYACEVTHQGLSSPVTKSFNRGEC | 83.1 % of control |
| GpH7-B3 variant H268_05P/GpL16-k0 (antibody, human IgG1, kappa, also called Ho Ab H268_05P) heavy: not shown light: DIVMTQSPLSLPVTPGEPASISCQASESLVHSNRNTYLHWYLQKPGQSPQLLIYKVSNRFSGVPDRFSGSGSGTDFTLKISRVEAEDVGVYYCSQNTHVPPTFGQGTKVEIERTVAAPSVFIFPPSDEQLKSGTASVVCLLNNFYPREAKVQWKVDNALQSGNSQESVTEQDSKDSTYSLSSTLTLSKADYEKHKVYACEVTHQGLSSPVTKSFNRGEC | 109 % of control |

Other lines, results leading:

| Ho/Con_2b | Binder |
| --- | --- |
| 92.9 % of control | GpH7-B3 variant G237_09D/GpL16-k0 (antibody, human IgG1, kappa, also called Ho Ab G237_09D) heavy: not shown light: DIVMTQSPLSLPVTPGEPASISCQASESLVHSNRNTYLHWYLQKPGQSPQLLIYKVSNRFSGVPDRFSGSGSGTDFTLKISRVEAEDVGVYYCSQNTHVPPTFGQGTKVEIERTVAAPSVFIFPPSDEQLKSGTASVVCLLNNFYPREAKVQWKVDNALQSGNSQESVTEQDSKDSTYSLSSTLTLSKADYEKHKVYACEVTHQGLSSPVTKSFNRGEC |
| 81.8 % of control | GpH7-B3 variant I332_02A/GpL16-k0 (antibody, human IgG1, kappa, also called Ho Ab I332_02A) heavy: not shown light: DIVMTQSPLSLPVTPGEPASISCQASESLVHSNRNTYLHWYLQKPGQSPQLLIYKVSNRFSGVPDRFSGSGSGTDFTLKISRVEAEDVGVYYCSQNTHVPPTFGQGTKVEIERTVAAPSVFIFPPSDEQLKSGTASVVCLLNNFYPREAKVQWKVDNALQSGNSQESVTEQDSKDSTYSLSSTLTLSKADYEKHKVYACEVTHQGLSSPVTKSFNRGEC |
| 166 % of control | GpH7-B3 variant G237_20W/GpL16-k0 (antibody, human IgG1, kappa, also called Ho Ab G237_20W) heavy: not shown light: DIVMTQSPLSLPVTPGEPASISCQASESLVHSNRNTYLHWYLQKPGQSPQLLIYKVSNRFSGVPDRFSGSGSGTDFTLKISRVEAEDVGVYYCSQNTHVPPTFGQGTKVEIERTVAAPSVFIFPPSDEQLKSGTASVVCLLNNFYPREAKVQWKVDNALQSGNSQESVTEQDSKDSTYSLSSTLTLSKADYEKHKVYACEVTHQGLSSPVTKSFNRGEC |
| 17.8 % of control | GpH7-B3 variant G237_10E/GpL16-k0 (antibody, human IgG1, kappa, also called Ho Ab G237_10E) heavy: not shown light: DIVMTQSPLSLPVTPGEPASISCQASESLVHSNRNTYLHWYLQKPGQSPQLLIYKVSNRFSGVPDRFSGSGSGTDFTLKISRVEAEDVGVYYCSQNTHVPPTFGQGTKVEIERTVAAPSVFIFPPSDEQLKSGTASVVCLLNNFYPREAKVQWKVDNALQSGNSQESVTEQDSKDSTYSLSSTLTLSKADYEKHKVYACEVTHQGLSSPVTKSFNRGEC |
| 168 % of control | GpH7-B3 variant K326_08L/GpL16-k0 (antibody, human IgG1, kappa, also called Ho Ab K326_08L) heavy: not shown light: DIVMTQSPLSLPVTPGEPASISCQASESLVHSNRNTYLHWYLQKPGQSPQLLIYKVSNRFSGVPDRFSGSGSGTDFTLKISRVEAEDVGVYYCSQNTHVPPTFGQGTKVEIERTVAAPSVFIFPPSDEQLKSGTASVVCLLNNFYPREAKVQWKVDNALQSGNSQESVTEQDSKDSTYSLSSTLTLSKADYEKHKVYACEVTHQGLSSPVTKSFNRGEC |
| 5.3 % of control | GpH7-B3 variant G237_19Q/GpL16-k0 (antibody, human IgG1, kappa, also called Ho Ab G237_19Q) heavy: not shown light: DIVMTQSPLSLPVTPGEPASISCQASESLVHSNRNTYLHWYLQKPGQSPQLLIYKVSNRFSGVPDRFSGSGSGTDFTLKISRVEAEDVGVYYCSQNTHVPPTFGQGTKVEIERTVAAPSVFIFPPSDEQLKSGTASVVCLLNNFYPREAKVQWKVDNALQSGNSQESVTEQDSKDSTYSLSSTLTLSKADYEKHKVYACEVTHQGLSSPVTKSFNRGEC |
| 170 % of control | GpH7-B3 variant K326_07I/GpL16-k0 (antibody, human IgG1, kappa, also called Ho Ab K326_07I) heavy: not shown light: DIVMTQSPLSLPVTPGEPASISCQASESLVHSNRNTYLHWYLQKPGQSPQLLIYKVSNRFSGVPDRFSGSGSGTDFTLKISRVEAEDVGVYYCSQNTHVPPTFGQGTKVEIERTVAAPSVFIFPPSDEQLKSGTASVVCLLNNFYPREAKVQWKVDNALQSGNSQESVTEQDSKDSTYSLSSTLTLSKADYEKHKVYACEVTHQGLSSPVTKSFNRGEC |
| 103 % of control | GpH7-B3 variant I336_08L/GpL16-k0 (antibody, human IgG1, kappa, also called Ho Ab I336_08L) heavy: not shown light: DIVMTQSPLSLPVTPGEPASISCQASESLVHSNRNTYLHWYLQKPGQSPQLLIYKVSNRFSGVPDRFSGSGSGTDFTLKISRVEAEDVGVYYCSQNTHVPPTFGQGTKVEIERTVAAPSVFIFPPSDEQLKSGTASVVCLLNNFYPREAKVQWKVDNALQSGNSQESVTEQDSKDSTYSLSSTLTLSKADYEKHKVYACEVTHQGLSSPVTKSFNRGEC |
| 63.9 % of control | GpH7-B3 variant G237_18N/GpL16-k0 (antibody, human IgG1, kappa, also called Ho Ab G237_18N) heavy: not shown light: DIVMTQSPLSLPVTPGEPASISCQASESLVHSNRNTYLHWYLQKPGQSPQLLIYKVSNRFSGVPDRFSGSGSGTDFTLKISRVEAEDVGVYYCSQNTHVPPTFGQGTKVEIERTVAAPSVFIFPPSDEQLKSGTASVVCLLNNFYPREAKVQWKVDNALQSGNSQESVTEQDSKDSTYSLSSTLTLSKADYEKHKVYACEVTHQGLSSPVTKSFNRGEC |
